Source: the NTF2 design screens of Basanta et al. (2020)

Assay: protease stability score; higher = more stable; yeast display proteolysis, trypsin and chymotrypsin;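 further: log10 excess protease needed over predicted unfolded state with 0 meaning unfolded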

Sequence | protease stability score
DEEEHFRKWVHEFIKILETGDPDQAKKMMDPNVRETVGDKSLHGHDQMVREIEKRRESIDHVNFDIKDYRIQGNHFVLDLKVNEVHNGKEITRRLEVDASTQGDKLYVNEIRLS | -0.146
DEEEIATENAQRFINAVNKNNPDEFVKNMDEDVRIEYGDKVVHGRSQAKHLANEMVDKVDHLTARITDFKVHNGEVDVNVRITFRHNGRNDTHHVRLHLQVHNGRLHIQSMKWS | -0.412
DEEEIEDVARKLNTGNKDDMRELADKDVKAQVGDKEVHGRENLVRIMKRLKDQADHIKVDEVHVQGNRIQVRFQMNINGTTFDVSFVAKVSNGHIKYFSLRARDPRLDEKILRILK | 0.493
DEEEIHTMLEVLKQNDEQTLQDLFDENAKISVGEFRFHGRDEAIEFAREFNKAVDHVHYKRVDVQGNRARVKMQLNVNGKNIDVVVKVEIHNGRIKSLRIDVRDEQLRRDLEEAFR | 1.71
DEEEIRHINRKLLKALQEGNEHEVAKLADKDASFDIGDKTYNGRHQVRNMIRKIRSQVDHMTVERMSISNGRIFVFIVFEINGRTRRTNQVVEVKNGRIKEVHVKET | 0.145
DEEEIRMILDVIRARESGDEDRLHELLDKDVEFQVGEKTYHGREEIVRQVLQERREMQYSVNVKTVRDHNGVADIKAEFHFLYNGRPMNIDVEIHAHAHNGSVVNFRVRVDPKQMDDFKT | 1.26
DEEEKAEHVADEVRHALKRGDEDRLMNLMDENVRVEVGDKTIHGREEVRKELHRISKDFDHVDAKVKSIKVTNGNVIIIMDVKQNVNGRTRRFEVSMILDVKGDKARIQHIKND | 1.11
DEEEKAREQQEEFQKALEKNDKEKIKNYFDPNVRVHVGDKTLHGREDVAERLIQLAQHVDHIQVEIKKLDVRNGRIDVDVVVVFERNGQRSTQRFKITMKINNGRAYVQHMKQS | 0.109
DEEEKAREYNKTIRQVWHDNNEEDMMRLADENARLEYGDKQLHGRENFRKRQHDIHRRVDKVDVDVKRVEVHNGKFKAQFTFTLVSNGENNKRLYILVAQLHGDKFRIKQIVEQ | 0.099
DEEEKKKKAEHAAKAFVTGDEERMNQLASPDVTATVGDQRVHGRDDMNKLLQEFKRQADHVELKSFRNDENHVTIHVRVNHNGKMDKFVVNIRMHNGQVKIIHQTSS | -0.289
DEEEKKRQQEEIERLLHTGDHDRFSELMDKDVKMDVGEDRVHGRENVAKHLADEMKRIDHVNVQSVDVKGEKFDFSAQFRVNGQTVQRVIIMVQKNGKWKELSITVTDDDQLKRVES | 0.092
DEEELDNAKEMVKALLHGNPDRAKQLADPNAHYHVGDKKVHGNDNWAKLVRKERQELRVKIDRVDIKSKGNKVSVDIDVVHDHNGQPQKRNYRLHVEIHNGKVRNVKIQHDG | 0.066
DEEELDRLQKQLERNDWETFVRQADENVKVKYGDRSLHGHEDFNKYMKRLHDQVDHYQLNRVTNHGDHLQARVVFRFNGQNIDMTFEVRVHNGRIQEVVFHFTDPRTHKQFKENMD | 1.42
DEEELEKINQLIKTNDFQQLRQDADPNVQVEYGDKSYHGRENLTKNMREFEKMVDHVQLKDYRVKGEKLEADMVATVNGREIRFTLSMNVHNGKIKQISLKYRNEDQKRRMEEALN | 0.922
DEEELEKMAEKVIKMLRSGDPRQAVRMMDENAHVEYGDKTYHGREDAERAVKQWTDHFDKVRVVHVDVHNGTVNVDMEINHNGRVERYVVRVEVHNGRVKHLVVKSS | 1.2
DEEELERQAQELVDAWQTNDESKIRHLVDENARVQVGDTTWKGREKAEEQVQEFKKQVDRLRVISVRVHGENIVVHVEIVHNGKHFSLTIVIEMHNGKVKHISVDPKAVEIATK | 0.497
DEEELETMRRILKENDWETIAHNADKDVKMTVGDKTIHGRENVRHWVKKWQKNVDHIDVESIDVQGDRIDMVARNVVNGKTMKLVFHINVHNGHVQEIELRARNEKDEELLRKAEG | 1.3
DEEELKDVLKKFSKNDEDFFKDLADKDARAVYGDKEVHGREEMSDLWRILKEQVDHMHINHMKLQGDRIVVDFTMTINGQEYVNVQELKFQNGKLQEVVVKVTDEEQMKRLLKIEK | 0.298

Sequence | protease stability score
DEEELKDWLRNAREIWETGNPDQMEELADPDASIQVGDRTYHGSDEYKKWVEDMHRHADHIEVKEVSIRGDKVHIQVVINVNGRNFTFEFELRVRNGRVKQFNFDPDRMEEIKK | 0.574
DEEELKHINRELVEVAKTGNPDEWRKLMRKDVTMHVGDKTYHGREKVREHAKTLRDRIDHINVRSVSATGDKVVLNFEAKVNGQTRTYQFQARVHNGRIVSAHINER | 0.006
DEEELKHLMKVQTTGDPDKYEEMADKDVKAKIGDETYHGRETVLTQLRRMLTQIDHLEVKNVDTQGDKVNLRAVANYNGQELDVIYVLVVHNGRVDNMEIDARDEKVEDQLRQAMS | -0.348
DEEELKHVAELILKGDEKELSKMMDEDVRVHIGNKEYHGREQAEEAVKTLVDRADHFQVHDMRTSEGQIHVQLVVNINGENVNMYFVAEVHNGRIKEISARARDPREEEKFNKLLG | 1.68
DEEELKKHAHNLMRAMQTGDPDKVEEYFDPDAEYTVGDQTYRGREDMREWFEEVRRQVDHNQINDVRNSENHVNVDFVLNHNGTNHRVKFKAEIHNGRAKRASITTG | -0.271
DEEELKTAETNIRTGNFDDLSKQADENVNVQVGEKTIQGREEFNKVAHHLQKDVDHFEVKHVHNQGDQVNAEAVFVVDGKDLSFNMQMKMHNGRVKSVVFRATDETILRTYKEMLR | -0.152
DEEELKTIIRDMQSNDEERLANLFDEDAKVDVGDDVLHGREDVTKFFRKVNKRIDHFEIKTYDVRGEEVEVTVEAVVNGQRIKFVWVLTIKNGKAKSAKLSVTDKKQKRILEKNMD | 1.12
DEEELMNRFWETMERIMEKGDEDTMRKQVDPNAKAEYGDKTVHGRHQFAKFWIEQARRADHIKFDIKSIDVKPPTIVVRLTVKFNVNGTNHKRDISIVFKVHNGRIVLHNAHEN | 1.02
DEEELQEMIHEFVKALETGNPDDIDKNADEDAKAVYGDKEVEGREQIKHQIKQLHDAIDHLEVKRVSFDNGRAHIHVEMTVNGERFTAKITVEAHNGKIKDVQFDPRLRNAYES | 0.81
DEEELQRWAERIVEAFTHGDPQRLSKNVDKNVKVTVGEHEYHGKEELNKILEEIRRQADRIHYKSVDVQGDRANFDMVMNVNGKNVKFTLIVRFENGHAKHLEFDPRMWRVVQR | 1.53
DEEELQSVKEYIENLQTNNESRLRKYADPNAQITVGDKVIHGMEDFQRQMEEDRRHSRISFKSVEFRYHDGKAVVHAEFTHVDNGQPDEVRVDYRFKLHNGRIKSQNVREVK | -0.331
DEEELRELVRNIIEQLQQNNEEELKKQMDKDARMQYGDKEWHGREDIVRHLASVAHQVDHLELESVSVDGNKAHFTFRRQVNGHDETLRAELVVRNGRVVSIKYRHN | -0.021
DEEELREMVKKWLEVVQKGDQKKAVEMYKPNGEWRMIDEEKQGQEDVEKMLRKAQEDGVEFQTRKAKVEGNKAEMHYDMKLGDETVTFTVQLVAHGGRIDRVKVKVTEEAKKLLTKG | 0.221
DEEELRQAMKVVKTNDPDNLRKLMDENVRVQVGNKVYHGREEAEKWLERMRKQIDHVNVRRVQIQGDRIVVEMEVTVNGKTIEATLHAKLHNGSLKSLRVEATSEKEKEKIEEANK | 0.93
DEEELSEVANNMERILREGDPDKARSLADENAKAHIGDKKYHGREQIREMIHRMRTRADKVTVNELRITNGVIKIVAEFNVNGRNIEIVVHIRVNNGKISEVNFEVRDPDQYKEIYS | 0.386
DEEELSHFLDVVRTGDFHEMAKMVDPNARINVGDKRVHGREDAETLIKEIQKRADHVEVDSYSIEGDKVRVLMRVNVNGVEVVFILVVQLNNGRIVHRQVDVTNEELEKQVRHANS | 0.659
DEEELSQVVRKVIEALRTGDPDLFQKLADPNAKASVGDKSVHGKEEISSLQKEFSDRVDEIKFTHVSFENGHATIHMELNHNGRHDKVVVKIDVENGKIKHVQIEKS | 0.741
DEEELTKTLHEIIKDFVHGDSNQLRENADPNVKLKVGDKEIRGHHEVHKWAKKLRERVDSIKVKDYSATGEKAVAHVIADINGENVEITIVIQAHNGRIKLITVDPEDDKKMKQ | 0.279
